Reference: US20250376709A1, “PAPB AS A BIMOIETY-DEPENDENT THIOETHER INSTALLATION TOOL” (UNIVERSITY OF UTAH RESEARCH FOUNDATION, priority 2022, published 2025)
Where a chain is given by its changes, count along the chain named. Square brackets hold non-standard residues; d marks the D form. Ends that are not written are not given here.

Assays:
PapB = assay: Enzymatic reactions of msPapA peptides with PapB (thioether crosslinking, U/HPLC-MS readout); format: biochemical; details: for substrate conversion: after 300 s; for extent of conversion to crosslinked peptide by PapB (in words): incubation with PapB, SAM and reductant, MS isotopic envelope; for substrate converted to crosslinked product: assessed from MS isotopic envelope after PapB
Method: Assays were conducted in a Coy Laboratories anaerobic chamber with 98% N2/2% H2 atmosphere at room temperature. All reactions contained 0.05 M PIPES·NaOH (pH 7.4), 2 mM DTT, 2.4 mM SAM (enzymatically synthesized and purified as previously described (deGruyter, J. N., et al. Biochem. 2017, 56 (30), 3863-3873)), ˜100-400 μM msPapA variants (concentration determined by peptide dry weight or by spectroscopic analysis in the case of Y19W), and […]-10 μM PapB. Either dithionite (dT) or flavodoxin (FldA), flavodoxin reductase (FPR) and NADPH were used to reduce PapB. For the assays that used chemical reductant, the total concentration was 2 mM dT. For the assays that used the biological reducing system, the mixtures contained 25 μM FldA, 2 μM FPR and 2 mM NADPH. The total volume of the reactions ranged from 0.1 mL for initial screenings to 0.5 mL for MS/MS Collision Induced Dissociation (CID) fragmentation experiments described below. Control reactions in the absence of dT, SAM and PapB were also conducted. Reactions were initiated with the addition of PapB and quenched at times ranging from 15 s to 2 h by the addition of 10% of the reaction volume of 30% (w/v) trichloroacetic acid (TCA, ACS grade). The samples were centrifuged at 16,000×g for 10 min in a microcentrifuge to pellet the precipitated PapB.
The assays were analyzed using either a Vanquish UHPLC with a diode-array detector connected to a Q-Exactive mass spectrometer or an Ultimate 3000 HPLC with a diode-array detector connected to a LTQ OrbiTrap XL mass spectrometer. Each was operated in positive ion mode, the FT analyzer was set to 100,000 resolution, 1 microscan, and 200 ms maximum injection time. Xcalibur software was used to analyze data. A 20 μL aliquot was injected onto a Hypersil GOLD C18 column (2.1 mm×150 mm, 1.9 μm particle size) (Thermo Fisher) pre-equilibrated in 0.1% (v/v) LC-MS Optima TFA (Fisher in LC-MS Optima water (Fisher). Chromatographic steps were carried out at 0.2 mL/min with buffer A containing 0.1% (v/v) TFA in Optima water and buffer B containing Optima grade acetonitrile with 0.1% (v/v) TFA. The separation consisted of washing with 100% A from 0 to 3 min, followed by a linear gradient from 100% to 0% A from 3 to 6 min, washing with 0% A from 6 to 10 min, and reequilibration with 100% A from 10 to 14 min. […]

Leader-AAAASACDAADA = tested on: T1, Leader-AAAASACDAADA
T1 sequence: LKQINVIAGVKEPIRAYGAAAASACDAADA

Leader-AAACSAADAADA = tested on: T2, Leader-AAACSAADAADA
T2 sequence: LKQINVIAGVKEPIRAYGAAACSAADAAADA

Leader-AAACSACDAADA = tested on: T3, Leader-AAACSACDAADA
T3 sequence: T1 sequence with A22C

Leader-AAACSANDACSANDA = tested on: T4, Leader-AAACSANDACSANDA
T4 sequence: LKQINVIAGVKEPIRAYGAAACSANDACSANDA

Leader-AAACSANDA = tested on: T5, Leader-AAACSANDA
T5 sequence: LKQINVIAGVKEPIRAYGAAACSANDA

Leader-CDSNNAANA = tested on: T6, Leader-CDSNNAANA
T6 sequence: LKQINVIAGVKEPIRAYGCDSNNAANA

Leader-CSAAAANDA = tested on: T7, Leader-CSAAAANDA
T7 sequence: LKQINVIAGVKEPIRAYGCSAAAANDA

Leader-CSAAANDA = tested on: T8, Leader-CSAAANDA
T8 sequence: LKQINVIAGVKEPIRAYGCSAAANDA

Leader-CSAANDA = tested on: T9, Leader-CSAANDA
T9 sequence: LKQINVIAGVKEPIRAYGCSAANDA

Leader-CSDNNAAA = tested on: T10, Leader-CSDNNAAA
T10 sequence: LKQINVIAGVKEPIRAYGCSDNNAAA

Leader-CSNDAAA = tested on: T11, Leader-CSNDAAA
T11 sequence: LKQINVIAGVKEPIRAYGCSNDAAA

Leader-DSANCA = tested on: T12, Leader-DSANCA
T12 sequence: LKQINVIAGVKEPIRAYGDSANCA

Leader-DSAN^DCA = tested on: T13, Leader-DSAN^DCA
T13 sequence: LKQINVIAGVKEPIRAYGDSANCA

Leader-^DDSANCA = tested on: T14, Leader-^DDSANCA
T14 sequence: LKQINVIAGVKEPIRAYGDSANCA

Leader-^DDSAN^DCA = tested on: T15, Leader-^DDSAN^DCA
T15 sequence: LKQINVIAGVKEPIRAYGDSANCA

Y17W msPapA = tested on: T16, Y17W msPapA
T16 sequence: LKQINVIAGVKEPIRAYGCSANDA

leader-CSAN^DDA = tested on: T17, leader-CSAN^DDA
T17 sequence: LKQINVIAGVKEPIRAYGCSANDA

leader-^DCSANDA = tested on: T18, leader-^DCSANDA
T18 sequence: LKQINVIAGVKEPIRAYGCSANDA

leader-^DCSAN^DDA = tested on: T19, leader-^DCSAN^DDA
T19 sequence: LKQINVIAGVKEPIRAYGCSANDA

[1] = tested on: T20, minimal substrate PapA (msPapA)
T20 sequence: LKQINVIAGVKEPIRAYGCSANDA

What does the source list for “LKQINVIAGVKEPIRAYGCSANDA [msPapA, reference compound]”?
kinetics with dT relative to biological reducing system (PapB; 430 nM PapB, 191 μM peptide): roughly 3 fold; substrate conversion (PapB; biological reducing system (FldA/FPR/NADPH)): 100%; substrate conversion (PapB; chemical reducing system (dT)): 100%; turnover number (approximation of kcat for PapB) (PapB; dithionite (dT) as reductant, 430 nM PapB, 191 μM peptide, linear portion of curve, FIG. 5 names Y17W msPapA): 7.4 ± 0.1 s⁻¹; extent of conversion to crosslinked peptide by PapB (in words) (PapB): complete conversion

With “LKQINVIAGVKEPIRAYG^DCSANDA (LKQINVIAGVKEPIRAYG[dC]SANDA) [leader-^DCSANDA]” as the substance, how does the “extent of conversion to crosslinked peptide by PapB (in words)” value (“extent of conversion” for short) (PapB) read?
Its value is “full conversion”.

Which “thioether crosslinking (loss of 2 Da, MS)” value (Leader-AAAASACDAADA) does the source give for PapB here?
The value was “all the peptides that were examined were efficiently crosslinked by the enzyme”.

And the “thioether crosslinking (loss of 2 Da, MS)” value (Leader-AAACSAADAADA)?
The value was “all the peptides that were examined were efficiently crosslinked by the enzyme”.

And the “thioether crosslinking (loss of 4 Da, MS)” value (Leader-AAACSACDAADA)?
The value was “all the peptides that were examined were efficiently crosslinked by the enzyme”.

What about the “thioether crosslinking (loss of 4 Da, MS)” value (Leader-AAACSANDACSANDA) of the same substance?
Its value is “all the peptides that were examined were efficiently crosslinked by the enzyme”.

And the “thioether crosslinking (loss of 2 Da, MS)” value (Leader-AAACSANDA)?
Its value is “all the peptides that were examined were efficiently crosslinked by the enzyme”.

What about the “thioether crosslinking (loss of 2 Da, MS)” value (Leader-CDSNNAANA) of the same substance?
Its value is “CX0D (FIG. 8B) and CX6D (FIG. 8C) did not fully react--suggesting that PapB does not processes these motifs efficiently”.

What about the “thioether crosslinking (loss of 2 Da, MS)” value (Leader-CSAAAANDA) of the same substance?
Its value is “CX0D (FIG. 8B) and CX6D (FIG. 8C) did not fully react--suggesting that PapB does not processes these motifs efficiently”.

What about the “thioether crosslinking (loss of 2 Da, MS)” value (Leader-CSAAANDA) of the same substance?
The value was “the reactions with 1-5 intervening residues appear to go to completion”.

And the “thioether crosslinking (loss of 2 Da, MS)” value (Leader-CSAANDA)?
Its value is “the reactions with 1-5 intervening residues appear to go to completion”.

What about the “thioether crosslinking (loss of 2 Da, MS)” value (Leader-CSDNNAAA) of the same substance?
The value was “the reactions with 1-5 intervening residues appear to go to completion”.

And the “thioether crosslinking (loss of 2 Da, MS)” value (Leader-CSNDAAA)?
The value was “the reactions with 1-5 intervening residues appear to go to completion”.

And the “thioether crosslinking (MS)” value (Leader-DSANCA)?
The value was “we were unable to observe any crosslinked product with the transposed peptides, either with L- or D-amino acids”.

What about the “thioether crosslinking (MS)” value (Leader-DSAN^DCA) of the same substance?
The value was “we were unable to observe any crosslinked product with the transposed peptides, either with L- or D-amino acids”.

And the “thioether crosslinking (MS)” value (Leader-^DDSANCA)?
Its value is “we were unable to observe any crosslinked product with the transposed peptides, either with L- or D-amino acids”.

What about the “thioether crosslinking (MS)” value (Leader-^DDSAN^DCA) of the same substance?
Its value is “we were unable to observe any crosslinked product with the transposed peptides, either with L- or D-amino acids”.

What about the “turnover number with dithionite (approximation of kcat)” value (Y17W msPapA) of the same substance?
The value was 7.4±0.1 s^-1 with dT.

And the “turnover number with the biological reducing system FldA/FPR/NADPH (approximation of kcat)” value (Y17W msPapA)?
The value was 2.6=0.2 s^-1 are estimated with the biological reducing system.

And the “thioether crosslinking (loss of 2 Da, MS)” value (leader-CSAN^DDA)?
Its value is “significant substrate turnover is observed as well, but the conversion is not complete”.

And the “thioether crosslinking (loss of 2 Da, MS)” value (leader-^DCSANDA)?
Its value is “full conversion to the crosslinked peptide is seen, as evidenced by the loss of 2 Da”.

What about the “substrate converted to crosslinked product (MS)” value (leader-^DCSAN^DDA) of the same substance?
The value was “at least ˜15% of the substrate is converted to product”.

What about the “thioether crosslinking (loss of 2 Da, HR-MS)” value [1] of the same substance?
Its value is “complete conversion of msPapA to a singly crosslinked peptide is routinely observed using 0.1 nmol PapB and 20 mmol msPapA in 5 min”.

What about the “thioether crosslinking (loss of 2 Da, MS)” value [1] of the same substance?
Its value is “the reactions with 1-5 intervening residues appear to go to completion”.

For LKQINVIAGVKEPIRAYGCDSNNAANA [CX0D], which “extent of conversion” value (PapB) is on record?
The value was “did not fully react”.

How did the “substrate converted to crosslinked product” value (PapB) turn out when “LKQINVIAGVKEPIRAYGENLYFQ^DFCF^DWKTET [octreotide analog]” was run?
Its value is about 75%.

Which “extent of conversion” value (PapB) does the source give for “LKQINVIAGVKEPIRAYGCSAN^DDA [leader-CSAN^DDA]” here?
The value was “conversion is not complete”.

What does the source list for “LKQINVIAGVKEPIRAYGPCSAN^DDA [leader-^DCSAN^DDA]”?
substrate converted to crosslinked product (PapB): ≥ 15%; extent of conversion to crosslinked peptide by PapB (in words) (PapB): processed inefficiently

How did the “extent of conversion” value (PapB) turn out when LKQINVIAGVKEPIRAYGCSAAAANDA [CX6D] was run?
Its value is “did not fully react”.
